In PMC8693861, “Structure, mechanism, and inhibition of Hedgehog acyltransferase” (Molecular Cell, 2021):

Biological target: biotinylated human HHAT-Avi-1D4 (pHR-CMV-TetO2-HHAT-wildtype-Avi-1D4) (Homo sapiens, natural variant VAR_024743, strain, biotin on the biotinylation tag)
Test: cell-based or functional assay

Sequence of biotinylated human HHAT-Avi-1D4 (pHR-CMV-TetO2-HHAT-wildtype-Avi-1D4) (Homo sapiens, natural variant VAR_024743, strain, biotin on the biotinylation tag) (Q5VTY9 other isoform, or with tags, fused parts or gaps, change not shown): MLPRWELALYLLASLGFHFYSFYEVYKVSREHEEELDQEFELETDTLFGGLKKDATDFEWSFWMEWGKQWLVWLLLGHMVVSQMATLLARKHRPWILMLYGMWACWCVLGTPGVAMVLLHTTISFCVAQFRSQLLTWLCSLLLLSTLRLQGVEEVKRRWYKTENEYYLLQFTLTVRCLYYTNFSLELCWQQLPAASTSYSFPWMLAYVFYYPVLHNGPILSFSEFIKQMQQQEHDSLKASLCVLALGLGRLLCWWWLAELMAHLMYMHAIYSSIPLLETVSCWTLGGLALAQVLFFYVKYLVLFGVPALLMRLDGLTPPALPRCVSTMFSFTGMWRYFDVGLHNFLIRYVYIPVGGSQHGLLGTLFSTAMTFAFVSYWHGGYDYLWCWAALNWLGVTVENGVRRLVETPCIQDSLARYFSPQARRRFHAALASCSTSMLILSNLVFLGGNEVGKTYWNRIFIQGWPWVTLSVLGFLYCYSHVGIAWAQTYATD

Binder	IC50 of inhibition of HHAT-catalysed palmitoyl transfer to a SHH peptide (acyl-cLIP assay); blocks HHAT with SHH
nanobody NB169 (VHH) VHH: QVQLVESGGGLVQAGGSLRLSCAASGSIRSINGMGWYRQAPGKQRELVAALSSGGSTNYADSVKGRFTISRDNAKKTVNLQMNSLKPEDTAVYYCNARRGGRSWSEGPPYDYWGQGTQVTVSS	1.3 nM
nanobody NB177 (VHH) VHH: QVQLVESGGGLVQAGGSLRLSCTASGAIFSTYDVSWYRQAPEKPRELVAIITRGGNTHYADTVKGRFTISRDNAKNTVYLQMNSLKPEDTAVYYCHAGVQGAMLGPRNYWGQGTQVTVSS	0.9 nM
